In one assay the test system is 5XG-35S:GUS. The experiment in a line: MOF induced GUS activity in Arabidopsis plants with VGE, AGE or A5A5GE. The format is in vivo, Arabidopsis thaliana. The note with it: for activation of GUS expression, T2 generation plants: induced with MOF, plant lines #11, #11, #18; for activation of GUS expression, T1 generation plants: soil drench 1:10,000 dilution of MOF (61.3 μM) for 60 hours. Here is the method:
In this Example, Arabidopsis thaliana Col-0 plants were transformed with A. tumefaciens bacterium (strain GV3101) containing effector constructs comprising the CsVMV promoter operably linked to a nucleic acid sequence (SEQ ID NO:104) encoding the GE protein, plus (i) a nucleic acid sequence encoding the VP16 acidic activation domain of the herpes simplex virus, (ii) a sequence (SEQ ID NO:9) encoding the full RF2a acidic domain, or (iii) a sequence (2×SEQ ID NO:102) encoding a dimer of the A5 minimal acidic domain of RF2a (“A5A5”). The foregoing VP16 acidic domain-, RF2a acidic domain-, and A5A5 domain-encoding sequences were oriented to express such domains at the N-terminal of the GE protein. FIG. 28 refers to these constructs as VGE, AGE, and A5A5GE, respectively.
The foregoing effector constructs were prepared using standard DNA cloning and PCR procedures, and plasmids containing nucleic acid sequences encoding the VP16 acidic domain, the full length RF2a acidic domain (SEQ ID NO:6), the A5A5 domain (2×SEQ ID NO:101), and the GE domain (SEQ ID NO:103). Those of ordinary skill in the art will appreciate, however, that such effector sequences (and derivatives thereof) may also be constructed synthetically using standard procedures. The reporter construct described in Example 17 above, 5XG-35S:GUS, was used in this Example.
Next, plasmids containing the effector and reporter constructs described above were transferred by electroporation into A. tumefaciens strain GV3101. Agrobacterium isolates that contained the respective plasmids were used to transform A. thaliana Col-0 using a standard floral dip method (Clough and Bent, 1998). Seeds from the T1 generation were collected and germinated in Murashige and Skoog medium (Murashige and Skoog, 1962) containing a selective component (hygromycin B (30 μg/mL).
The seedlings that survived the selection were grown in soil in a growth chamber and allowed to self-fertilize. Next, T2 generation seeds were collected and germinated in Murashige and Skoog medium, which contained hygromycin B (30 μg/mL). The seedlings that survived the selection in a 3:1 segregation pattern were grown in soil in a growth chamber (under 12 hours of light/12 hours of dark per day, at 22° C., 50% humidity).
Analysis of T1 Generation Plants—In this Example, 22 T1 plants were analyzed for methoxyfenozide (MOF) induced gene expression. […] The supernatants were analyzed for GUS enzymatic activity as described in Example 16 above.
Analysis of T2 Generation Plants—A total of 16 different plants from a T2 generation plant line (having a segregation of the reporter/effector constructs of 3:1), wherein each plant contained a VGE, AGE, or A5A5GE effector construct, were induced with MOF and analyzed for GUS activity (as described above). […]

For assay [1], the system named is E fragment of the RTBV promoter. The experiment in a line: Co-transfection of E::GUS with RF2a and/or RF2b constructs in BY-2 protoplasts. The assay is classed as cell-based, tobacco. From the text: Nevertheless, the E fragment may be further stimulated by co-transfecting the BY-2 protoplasts with constructs that encode the RF2a and/or RF2b transcription factors. In this Example, the E fragment was activated in tobacco BY-2 protoplasts by co-transfection of E::GUS with CsVMV::RF2b, CaMV 35S::RF2a and CaMV 35S::RF2a/CsVMV::RF2b using methods well-known in the art.

Assay [2] has as its system Box II, Box IIm1 and Box IIm2 elements. The assay can be described thus: Surface Plasmon Resonance binding (BIAcore 2000). The note with it: 1:1 binding with a mass transfer model. On the procedure: To compare the binding affinities of RF2a and RF2b with the Box II element and its mutants, real time Surface Plasmon Resonance (“SPR”) measurements were conducted using a BIAcore 2000 instrument. The binding affinities of RF2a and RF2b to these DNA targets were measured on chips on which biotin labeled-Box II, -Box IIm1 and -Box IIm2 elements were immobilized.
The association and de-association constants were determined using BIAevaluation 3.1 software—using 1:1 binding with a mass transfer model. […] Furthermore, the DNA binding behavior of RF2a and RF2b are quite different from each other. […] The differences in the affinity of RF2a to the Box II element and its mutants, however, are not as dramatic as the differences of RF2b, while the relative order of affinities to the different target elements is the same for both proteins (FIG. 8).
A general note: SPR reads the build-up and loss of mass on a sensor chip optically.

The next assay concerns E(Box IIm1) promoter. The assay can be described thus: BY-2 protoplast transient assay, reporter pE(Box IIm1)::GUS with RF2a/RF2b effectors. The assay is classed as cell-based, tobacco. To be noted: co-transfection, BY-2 protoplasts. An excerpt: (§1) To illustrate the biological relevance of the differences in the binding affinities described above, the pE::GUS, pE(Box IIm1)::GUS and pE(Box IIm2)::GUS constructs were used as reporters in BY-2 protoplast transient assays. In these assays, CaMV 35S::RF2a, CsVMV::RF2b and CaMV 35S::RF2a/CsVMV::RF2b were used as effectors. All results were normalized against the GFP internal control. The relative GUS activities of different sets of transfection assays are shown in FIG. 9 for the Box IIm1 element, and FIG. 10 for the Box IIm2 element.

A further assay relates to E(Box IIm2) promoter. The experiment in a line: BY-2 protoplast transient assay, reporter pE(Box IIm2)::GUS with RF2a/RF2b effectors. The format is cell-based, tobacco. To be noted: co-transfection, BY-2 protoplasts, normalized against GFP.
Excerpt: as §1

B1: AGE: SEQ ID NO: 6 (A) + SEQ ID NO: 103 (GE) (protein)
chain: MGHRRAHSEILSLPEDLDLCAAGGGDGPSLSDENDEELFSMFLDVEKLNSTCGASSEAEAESSSAAAKLLSSIEQACDICRLKKLKCSKEKPKCAKCLKNNWECRYSPKTKRSPLTRAHLTEVESRLERLEQLFLLIFPREDLDMILKMDSLQDIKALLTGLFVQDNVNKDAVTDRLASVETDMPLTLRQHRISATSSSEESSNKGQRQLTVSGGSRRISWPECVVPETQCAMKRKEKKAQKEKDKLPVSTTTVDDHMPPIMQCEPPPPEAARIHEVVPRFLSDKLLETNRQKNIPQLTANQQFLIARLIWYQDGYEQPSDEDLKRITQTWQQADDENEESDTPFRQITEMTILTVQLIVEFAKGLPGFAKISQPDQITLLKAFSSEVMMLRVARRYDAASDSVLFANNQAYTRDNYRKAGMAYVIEDLLHFCRCMYSMALDNIHYALLTAVVIFSDRPGLEQPQLVEEIQRYYLNTLRIYILNQLSGSARSSVIYGKILSILSELRTLGMQNSNMCISLKLKNRKLPPFLEEIWDVADMSHTQPPPILESPTNL
modifications: This sequence was artificially derived and/or created by the inventors.; A combination of the Gal4 protein and Ecdysone receptor
B1: in the assay with 5XG-35S:GUS, the “activation of GUS expression, T2 generation plants” value is on record as “activated GUS expression (in the T2 generation plants) in the presence of the MOF inducer as strong as VP16” and the “activation of GUS expression, T1 generation plants” value is on record as “activated GUS expression in the presence of the MOF inducer as strong as VP16”.

B2: RF2b: bZIP transcription factor isolated through interaction with RF2a, SEQ ID NO:5 (protein)
chain: MQEPKHTDPAAMRGAHHRRARSEVAFRLPDDLDLGGGGAGAFDEIGSEDDLFSTFMDIEKISSGPAAAGGSDRDRAAETSSPPRPKHRHSSSVDGSGFFAAARKDAAASLAEVMEAKKAMTPEQLSDLAAIDPKRAKRILANRQSAARSKERKARYITELERKVQTLQTEATTLSAQLTLFQRDTTGLSAENAELKIRLQAMEQQAQLRDALNDALKQELERLKLATGEMTNSNETYSMGLQHVPYNTPFFPLAQHNAARQNGGTQLPPQFQPPRPNVPNHMLSHPNGLQDIMQQDPLGRLQGLDISKGPLVVKSESSSISASESSSTF
modifications: This sequence was artificially derived and/or created by the inventors.
Consider B2, for which the “activation of the E fragment by over-expression” value in assay [1] is recorded as “activated above a strong background expression”. Moreover, the “DNA binding behavior (association and dissociation)” value in assay [2] was “binds slowly to the DNA target and releases from the target relatively quickly”. Also, the “activity of the E(Box IIm1) promoter compared with the E wild type promoter” value in the assay with E(Box IIm1) promoter is on record as “as high as the expression of the E wild type promoter in BY-2 protoplasts”. Also, the “increase of promoter activity of E(Box IIm1)” value in the assay on E(Box IIm1) promoter (normalized against GFP) is “about 7 fold”. The “increase of promoter activity of E(Box IIm2)” value in the assay on E(Box IIm2) promoter is given as “about 5.8 fold”.

B3: A5A5GE: (2 × SEQ ID NO: 101 (A5)) + SEQ ID NO: 103 (GE) (protein, listed as Oryza sp.)
chain: EILSLPEDLDLCAAGGGDGPSLSDENDEEEILSLPEDLDLCAAGGGDGPSLSDENDEEKLLSSIEQACDICRLKKLKCSKEKPKCAKCLKNNWECRYSPKTKRSPLTRAHLTEVESRLERLEQLFLLIFPREDLDMILKMDSLQDIKALLTGLFVQDNVNKDAVTDRLASVETDMPLTLRQHRISATSSSEESSNKGQRQLTVSGGSRRISWPECVVPETQCAMKRKEKKAQKEKDKLPVSTTTVDDHMPPIMQCEPPPPEAARIHEVVPRFLSDKLLETNRQKNIPQLTANQQFLIARLIWYQDGYEQPSDEDLKRITQTWQQADDENEESDTPFRQITEMTILTVQLIVEFAKGLPGFAKISQPDQITLLKAFSSEVMMLRVARRYDAASDSVLFANNQAYTRDNYRKAGMAYVIEDLLHFCRCMYSMALDNIHYALLTAVVIFSDRPGLEQPQLVEEIQRYYLNTLRIYILNQLSGSARSSVIYGKILSILSELRTLGMQNSNMCISLKLKNRKLPPFLEEIWDVADMSHTQPPPILESPTNL
modifications: A combination of the Gal4 protein and Ecdysone receptor
In the case of B3, in the assay with 5XG-35S:GUS, the “activation of GUS expression, T2 generation plants” value is given as “activated GUS expression (in the T2 generation plants) in the presence of the MOF inducer as strong as VP16” and the “activation of GUS expression, T1 generation plants” value was “activated GUS expression in the presence of the MOF inducer as strong as VP16”.

The values above are taken from US7847064B2, “Methods and compositions for regulating gene expression in plant cells” (Donald Danforth Plant Science Center, priority 2004, dated 2010).
